Assay results from US9943596B2, “Combination therapy using dual inhibitor of c-MET and EGFR and IGF-1R inhibitor” (Samsung Electronics Co., Ltd., priority 2014, dated 2018).
Each block holds one molecule with its values, some of them ahead of it.

How the values were obtained:
[1] = test system: lung cancer cell line HCC827; assay: cell proliferation assay (CellTiter Glo), HCC827; type: cell-based; settings: ME22S 1/5 dilutions from 150 nM and/or linsitinib 10 μM, 72 hours, FIGS. 3A, 3B
Procedure: (§1) 72 hours after the treatment with the antibody and/or the inhibitor drug, the number of living cells was counted using a CellTiter Glo assay (Promega, G7573). This assay measures the amount of ATP which reflects metabolism of living cells, thereby counting the number of living cells.
(§2) 72 hours after the co-treatment, the number of living cells was counted by CellTiter Glo assay (Promega, G7573).

[2] = test system: gastric cancer cell line SNU5; assay: cell proliferation assay (CellTiter Glo), SNU5; type: cell-based; settings: ME22S 1/5 dilutions from 60 nM, alone or with linsitinib 10 μM, 72 hours, FIG. 2
Procedure: as §1
(§3) 72 hours after the co-treatment, the cell number was measured by CellTiter Glo assay (Promega, G7573).

[3] = test system: gastric cancer cell line SNU668; assay: cell proliferation assay (CellTiter Glo), SNU668; type: cell-based; settings: ME22S 1/5 dilutions from 60 nM, alone or with linsitinib 10 μM, 72 hours, FIG. 2
Procedure: as §1, §3

[4] = test system: gastric cancer cell line MKN45; assay: cell proliferation assay (CellTiter Glo), MKN45; type: cell-based; settings: ME22S 1/5 dilutions from 10 nM and/or linsitinib 10 μM, 72 hours, FIGS. 4A, 4B
Procedure: as §1, §2

[5] = test system: L3-1Y/IgG2 resistant MKN45re#1 and MKN45re#24 cell lines; assay: cell proliferation assay (CellTiter Glo), anti-c-Met antibody resistant MKN45; type: cell-based
Procedure: To obtain anti-c-Met antibody resistant MKN45 gastric cancer cells, MKN45 gastric cancer cells were administered with L3-1Y/IgG2 for at least 3 months by increasing the administration concentration. The amount of L3-1Y/IgG2 administered was increased from 1 μg/ml to 10 μg/ml, until resistance to L3-1Y/IgG2 is induced. The obtained L3-1Y/IgG2 resistant clones were named as MKN45re#1 and MKN45re#24, respectively.
72 hours after the co-treatment, the number of living cells was counted by CellTiter Glo assay (Promega, G7573). […] For comparison, the same experiment was preformed except that cells were treated with ME22S alone at the 1/5 diluted concentration starting from 10 nM.

c-Met = c-Met (Homo sapiens, UniProt P08581); assay: specificity of expressed scFv of huAbF46; type: binding; settings: after expression
c-Met, sequence (P08581 25-1390): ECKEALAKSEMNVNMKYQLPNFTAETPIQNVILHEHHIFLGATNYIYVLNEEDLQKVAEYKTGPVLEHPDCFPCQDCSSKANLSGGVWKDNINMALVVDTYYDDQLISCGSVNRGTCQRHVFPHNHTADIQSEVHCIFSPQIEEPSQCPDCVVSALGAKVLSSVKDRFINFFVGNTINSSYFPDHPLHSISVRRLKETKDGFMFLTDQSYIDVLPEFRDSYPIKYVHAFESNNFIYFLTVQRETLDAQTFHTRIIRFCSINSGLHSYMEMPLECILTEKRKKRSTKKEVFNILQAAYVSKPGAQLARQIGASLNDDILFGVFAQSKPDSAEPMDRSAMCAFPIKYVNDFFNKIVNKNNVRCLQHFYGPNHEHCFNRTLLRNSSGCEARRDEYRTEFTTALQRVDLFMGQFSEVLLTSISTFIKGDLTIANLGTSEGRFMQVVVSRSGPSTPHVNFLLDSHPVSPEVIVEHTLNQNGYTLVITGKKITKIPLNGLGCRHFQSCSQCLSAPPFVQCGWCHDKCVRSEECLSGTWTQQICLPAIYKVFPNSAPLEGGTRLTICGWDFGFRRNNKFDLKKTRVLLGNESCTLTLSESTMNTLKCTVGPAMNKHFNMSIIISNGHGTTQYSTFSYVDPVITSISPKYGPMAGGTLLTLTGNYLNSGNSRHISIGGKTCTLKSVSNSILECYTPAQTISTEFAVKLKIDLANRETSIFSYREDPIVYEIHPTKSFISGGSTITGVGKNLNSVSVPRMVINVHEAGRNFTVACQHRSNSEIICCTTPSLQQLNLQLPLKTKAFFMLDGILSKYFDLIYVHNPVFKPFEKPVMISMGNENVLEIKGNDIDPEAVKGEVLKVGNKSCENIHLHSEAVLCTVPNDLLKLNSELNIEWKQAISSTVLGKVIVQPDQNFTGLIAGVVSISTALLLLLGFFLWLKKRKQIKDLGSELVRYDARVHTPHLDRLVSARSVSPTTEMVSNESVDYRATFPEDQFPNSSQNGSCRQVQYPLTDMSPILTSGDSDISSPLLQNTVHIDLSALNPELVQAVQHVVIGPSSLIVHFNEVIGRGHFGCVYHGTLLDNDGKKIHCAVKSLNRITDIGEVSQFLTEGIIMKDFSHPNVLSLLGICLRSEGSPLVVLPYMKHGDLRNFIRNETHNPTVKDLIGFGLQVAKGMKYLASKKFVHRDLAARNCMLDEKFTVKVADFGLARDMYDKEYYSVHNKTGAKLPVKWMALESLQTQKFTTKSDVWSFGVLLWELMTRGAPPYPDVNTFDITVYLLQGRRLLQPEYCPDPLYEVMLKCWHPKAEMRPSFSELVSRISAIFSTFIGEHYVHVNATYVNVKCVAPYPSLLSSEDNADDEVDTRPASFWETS
From the text: For use in constructing an scFv of the huAbF46 antibody from the heavy and light chain variable regions of the huAbF46 antibody, a gene was designed to have the structure of “VH-linker-VL” for each of the heavy and the light chain variable region, with the linker including the amino acid sequence “[…]” (SEQ ID NO: 54). A polynucleotide sequence (SEQ ID NO: 55) encoding the designed scFv of huAbF46 was synthesized in Bioneer and an expression vector for the polynucleotide had the nucleotide sequence of SEQ ID NO: 56.

B1: ME22S: anti-c-Met/anti-EGFR bispecific antibody in which the modified anti-EGFR scFv is fused at the c-terminal of L3-1Y-IgG2 (antibody)
heavy: EVQLVESGGGLVQPGGSLRLSCAASGFTFTDYYMSWVRQAPGKGLEWLGFIRNKANGYTTEYSASVKGRFTISRDNSKNTLYLQMNSLRAEDTAVYYCARDNWFAYWGQGTLVTVSSASTKGPSVFPLAPCSRSTSESTAALGCLVKDYFPEPVTVSWNSGALTSGVHTFPAVLQSSGLYSLSSVVTVPSSNFGTQTYTCNVDHKPSNTKVDKTVERKCCVECPPCPAPPVAGPSVFLFPPKPKDTLMISRTPEVTCVVVDVSHEDPEVQFNWYVDGVEVHNAKTKPREEQFNSTFRVVSVLTVVHQDWLNGKEYKCKVSNKGLPAPIEKTISKTKGQPREPQVYTLPPSREEMTKNQVSLTCLVKGFYPSDIAVEWESNGQPENNYKTTPPMLDSDGSFFLYSKLTVDKSRWQQGNVFSCSVMHEALHNHYTQKSLSLSPGKGGGGSGGGGSEVQLLESGGGLVQPGGSLRLSCAASGFTFSNYDMSWVRQAPGKCLEWVSGISHSSGSKYYADSVKGRFTISRDNSKNTLYLQMNSLRAEDTAVYYCAKDATPRPLKPFDYWGQGTLVTVSSGGGGSGGGGSGGGGSQSVLTQPPSASGTPGQRVTISCTGSSSNIGNNDVSWYQQLPGTAPKLLIYDDNKRPSGVPDRFSGSKSGTSASLAISGLRSEDEADYYCGSWDASLNAYVFGCGTKLTVLG
light: DIQMTQSPSSLSASVGDRVTITCKSSQSLLASGNQNNYLAWYQQKPGKAPKMLIIWASTRVSGVPSRFSGSGSGTDFTLTISSLQPEDFATYYCQQSYSRPYTFGQGTKVEIKRTVAAPSVFIFPPSDEQLKSGTASVVCLLNNFYPREAKVQWKVDNALQSGNSQESVTEQDSKDSTYSLSSTLTLSKADYEKHKVYACEVTHQGLSSPVTKSFNRGEC
- cancer cell proliferation inhibition effect [1]: not observed
- cell proliferation inhibition effect [2]: has a cell proliferation inhibition effect
- cell proliferation inhibition effect [3]: does not exhibit a cell proliferation inhibition effect
- cancer cell proliferation inhibition [4]: can inhibit proliferation
- cancer cell proliferation inhibition effect ([5]; MKN45re#1 (linsitinib 10 μM) or MKN45re#24 (linsitinib 2.5 μM), ME22S 1/5 dilutions from 10 nM, 72 hours, FIG. 5): no cancer cell proliferation inhibition effect
- resistance of the cell line to the antibody ([5]; anti-c-Met antibody (L3-1Y/IgG2) resistant MKN45 gastric cancer cell line): resistant

- specificity to c-Met (c-Met): exhibit specificity to c-Met
B2: scFv of huAbF46: scFv of structure VH-linker-VL from the heavy and light chain variable regions of huAbF46 (protein)
scFv: EVQLVESGGGLVQPGGSLRLSCAASGFTFTDYYMSWVRQAPGKGLEWLGFIRNKANGYTTEYSASVKGRFTISRDNSKNTLYLQMNSLRAEDTAVYYCARDNWFAYWGQGTLVTVSSGLGGLGGGGSGGGGSGGSSGVGSDIQMTQSPSSLSASVGDRVTITCKSSQSLLASGNQNNYLAWHQQKPGKAPKMLIIWASTRVSGVPSRFSGSGSGTDFTLTISSLQPEDFATYYCQQSYSAPLTFGQGTKVEIKR
